Source: article PMC6667456

Target: T1, TofR-His (also written His-TofR) (Burkholderia glumae BGR1?) (UniProt A1KWS3)
T1 sequence: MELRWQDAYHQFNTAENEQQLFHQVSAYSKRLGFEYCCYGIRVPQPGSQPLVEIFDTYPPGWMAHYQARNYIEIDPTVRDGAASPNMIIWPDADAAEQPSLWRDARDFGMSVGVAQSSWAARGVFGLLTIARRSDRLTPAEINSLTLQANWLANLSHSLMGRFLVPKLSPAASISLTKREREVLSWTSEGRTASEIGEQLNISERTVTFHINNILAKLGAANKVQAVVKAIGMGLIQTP
Assay: EMSA
Settings: EMSA: 0.4 nM biotin-DNA, 10 mM Tris-HCl pH 7.5, 10 mM NaCl, 100 mM NaCl (both sic), 0.5 mM EDTA, 1 mM DTT, 5% glycerol, 50 ng/uL poly(dI-dC), 15 min …

Sequence: TGGTGTCCTCCAGATATGGGCTGCAGTCGATATGGGCTGCAGTATCGGATCTCGCTTATCATTACTCAAACGAAATTTTCTTGAGTTGAACATGAAAAATATTCAGGTTCACGCTGCTACTGAACGCCGCCATGAATCGCTCGCCGCTTGAGCTGCGCCATCTGCAGACCCTCACGGCGCT (double strand) [metE1 putative promoter region, 181 bp]
- binding: binds
